{"source": "the supplement of paper PMC12042874", "note": "± gives the uncertainty stated by the source.", "data": [{"assay": "amyloid nucleation score (Sup35N fusion, yeast selection) (log enrichment); library NNK1; higher = more nucleation; inactive = no reads after selection", "in_short": "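In psi-negative yeast, Sup35N fusions carrying peptides of 20 random codons were induced with 100 μM copper sulfate for 24 hours. The cells then grew 7 days at 30°C on medium lacking adenine and uracil, and plasmid inserts from input and output were Illumina-sequenced, excluding sequences with under 100 input reads. Nucleation score is the DiMSum log enrichment of output over input reads, centred on the mode score of non-aggregating sequences.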", "values": [{"substance": "HGAMLSSM", "amyloid nucleation score": "-2.06 ± 2.4"}, {"substance": "HGFNPNWGSRVKGSMVRV", "amyloid nucleation score": "-0.044 ± 0.47"}, {"substance": "HGLNVTLDVHGESYLHIYVW", "amyloid nucleation score": "-0.036 ± 0.62"}, {"substance": "HGNYTHQMTPAELFLRHMRF", "amyloid nucleation score": "-0.991 ± 2.4"}, {"substance": "HHRVCSMKWSNCYELNVMGE", "amyloid nucleation score": "-0.429 ± 0.28"}, {"substance": "HHSVGSYRINCLV", "amyloid nucleation score": "3.39 ± 0.089"}, {"substance": "HHVAVSLDANLNFFTLWLER", "amyloid nucleation score": "3.81 ± 0.12"}, {"substance": "HIFCRVIPLHMYKLADNW", "amyloid nucleation score": "0.841 ± 0.8"}, {"substance": "HIQRYMWKGGLEFVLIVRRA", "amyloid nucleation score": "1.2 ± 0.4"}, {"substance": "HIYNDSVRSFWIFQ", "amyloid nucleation score": "6.606 ± 0.05"}, {"substance": "HIYSF", "amyloid nucleation score": "1.26 ± 0.12"}, {"substance": "HKHRKPSLNRVPGVGW", "amyloid nucleation score": "-0.78 ± 0.43"}, {"substance": "HKNLQIVTFFVEYVSETPPG", "amyloid nucleation score": "-1.05 ± 1"}, {"substance": "HLECFRLRLPFTNCDVYVRS", "amyloid nucleation score": "0.845 ± 0.54"}, {"substance": "HLGSNFKISAGAINVRLSHR", "amyloid nucleation score": "4.76 ± 0.1"}, {"substance": "HLHLGCWW", "amyloid nucleation score": "3.31 ± 0.14"}, {"substance": "HLKGHFEGWGLIICVSSGFD", "amyloid nucleation score": "2.08 ± 0.14"}, {"substance": "HLLALFTSFVTITPW", "amyloid nucleation score": "-0.986 ± 0.88"}, {"substance": "HLSVMMGFGFRTFNMIVMVC", "amyloid nucleation score": "1.05 ± 0.26"}, {"substance": "HLWHSGPFVRMCCATFIFLA", "amyloid nucleation score": "0.49 ± 0.75"}, {"substance": "HLYTVTHGSLNDKTGRP", "amyloid nucleation score": "0.31 ± 0.97"}, {"substance": "HMADTRVADCSQLLR", "amyloid nucleation score": "0.409 ± 0.81"}, {"substance": "HMWYFRYGHEWSRTYNKCIK", "amyloid nucleation score": "-0.02 ± 0.72"}, {"substance": "HNKCSFLYMSQYARHRMYSS", "amyloid nucleation score": "0.218 ± 0.5"}, {"substance": "HNLLM", "amyloid nucleation score": "inactive"}, {"substance": "HNSHRWYMGGTNVGVSCI", "amyloid nucleation score": "0.456 ± 0.93"}, {"substance": "HNSRWTRFRHLCSYITYGGC", "amyloid nucleation score": "-0.396 ± 0.58"}, {"substance": "HPHVMLGILGHN", "amyloid nucleation score": "0.752 ± 0.85"}, {"substance": "HPIGSDSPHSVFMVSCVSLQ", "amyloid nucleation score": "1.68 ± 0.28"}, {"substance": "HPLRLYRKSISINVVLSSCL", "amyloid nucleation score": "0.733 ± 0.88"}, {"substance": "HQTCCLWSTVVLGV", "amyloid nucleation score": "3.04 ± 0.15"}, {"substance": "HQVVNNGTWGEQYIWMLSAC", "amyloid nucleation score": "0.442 ± 0.46"}, {"substance": "HRFSCG", "amyloid nucleation score": "inactive"}, {"substance": "HRISASTLCVIMALRFTSWR", "amyloid nucleation score": "1.42 ± 0.44"}, {"substance": "HRKTSPISENQVY", "amyloid nucleation score": "-0.59 ± 0.27"}, {"substance": "HRPDIHFVVPVTAP", "amyloid nucleation score": "-0.619 ± 0.4"}, {"substance": "HRQTNKGEHIQDHAAMLVFR", "amyloid nucleation score": "-0.18 ± 0.63"}, {"substance": "HRSCCNKRRRERNFSDWTGV", "amyloid nucleation score": "0.542 ± 0.77"}, {"substance": "HRWTLMEVYITGIALKYVVY", "amyloid nucleation score": "-0.58 ± 0.76"}, {"substance": "HSGQYCSAHPGFVK", "amyloid nucleation score": "-0.49 ± 0.5"}, {"substance": "HSMLI", "amyloid nucleation score": "0.539 ± 0.61"}, {"substance": "HSSNAAFCYAVTIYLQVLLV", "amyloid nucleation score": "0.837 ± 0.66"}, {"substance": "HSSPLGLLWGAPARRRYCRR", "amyloid nucleation score": "-0.32 ± 0.87"}, {"substance": "HSTCLPNTIQTLRRRALSCR", "amyloid nucleation score": "-1.22 ± 1.9"}, {"substance": "HSVLVVSVVHCGFKQKRNK", "amyloid nucleation score": "3.98 ± 0.15"}, {"substance": "HSVVLILCLAL", "amyloid nucleation score": "0.057 ± 1.2"}, {"substance": "HSVYL", "amyloid nucleation score": "1.24 ± 0.3"}, {"substance": "HTKDSGSVARCVVSNLSCNT", "amyloid nucleation score": "1.09 ± 0.48"}, {"substance": "HTRIADGPAC", "amyloid nucleation score": "0.018 ± 0.21"}, {"substance": "HTRNVKTLRVKHSIDVPFLP", "amyloid nucleation score": "1.41 ± 0.74"}, {"substance": "HTRRTEFHAGYYRINTAYAV", "amyloid nucleation score": "0.268 ± 0.7"}, {"substance": "HTSFGVCVSVICFVLRWAYH", "amyloid nucleation score": "inactive"}, {"substance": "HTWMSLRGVAFTCQ", "amyloid nucleation score": "-0.13 ± 0.3"}, {"substance": "HTWNPDYVAECFKEFKRLYK", "amyloid nucleation score": "0.393 ± 0.61"}, {"substance": "HVDDIWWTTFMYFPRCHLHV", "amyloid nucleation score": "0.858 ± 0.57"}, {"substance": "HVDKFLG", "amyloid nucleation score": "-0.025 ± 0.6"}, {"substance": "HVMTFEVSFRTGCKDVINWV", "amyloid nucleation score": "1.03 ± 0.18"}, {"substance": "HVQIILYLSFKTRRLVDLCL", "amyloid nucleation score": "inactive"}, {"substance": "HVSAWWLTSNV", "amyloid nucleation score": "-0.205 ± 0.37"}, {"substance": "HWLSAMIGVPEHGH", "amyloid nucleation score": "-0.121 ± 0.33"}, {"substance": "HWLTV", "amyloid nucleation score": "-1.27 ± 1.6"}, {"substance": "HWSSSS", "amyloid nucleation score": "-0.745 ± 0.66"}, {"substance": "HWVGFLRYTSIKDDHQFGSK", "amyloid nucleation score": "-0.323 ± 0.51"}, {"substance": "HYGVDEAFGRWDGVLMCQKV", "amyloid nucleation score": "-0.134 ± 0.4"}, {"substance": "HYLISSCWIIRSGWADGTGR", "amyloid nucleation score": "1.01 ± 0.15"}, {"substance": "HYSHAWTVSRLMWNRDERGA", "amyloid nucleation score": "1.59 ± 0.2"}, {"substance": "HYTFKDCSSPLSWEPQPLFP", "amyloid nucleation score": "-0.32 ± 0.83"}, {"substance": "HYYVLCFRVHLGQ", "amyloid nucleation score": "0.176 ± 1.1"}, {"substance": "IALSTYCRNTDSPSSSGSCY", "amyloid nucleation score": "-0.245 ± 0.77"}, {"substance": "IAMLSCQRWMCQQTVTSKF", "amyloid nucleation score": "-1.29 ± 0.77"}, {"substance": "IANGHKSSRCMQKDSSTS", "amyloid nucleation score": "0.586 ± 0.35"}, {"substance": "IASFKWGFLMDYNLYVSSSG", "amyloid nucleation score": "0.261 ± 0.38"}, {"substance": "IAWFYRGPIKLLRLYIGGIW", "amyloid nucleation score": "-0.042 ± 0.73"}, {"substance": "ICDRAWRCFKTKSTQPVTVS", "amyloid nucleation score": "-0.19 ± 0.36"}, {"substance": "ICGTCCMPNLFVHHYIFLSP", "amyloid nucleation score": "6.708 ± 0.063"}, {"substance": "ICIYNSGIGLTGVRVWVQGL", "amyloid nucleation score": "inactive"}, {"substance": "ICKFDLALKFRGRYTEAEWC", "amyloid nucleation score": "1 ± 0.32"}, {"substance": "ICMILVPFMPT", "amyloid nucleation score": "0.976 ± 1.1"}, {"substance": "ICVNESKKVFQVFIANIGRG", "amyloid nucleation score": "4.86 ± 0.07"}, {"substance": "IDEYTDMN", "amyloid nucleation score": "0.146 ± 0.42"}, {"substance": "IDHNLSGLVC", "amyloid nucleation score": "0.544 ± 0.97"}, {"substance": "IDKGLHALLSTLLSINVSFC", "amyloid nucleation score": "2.95 ± 0.094"}, {"substance": "IDVGSHFCSFQEHKACGTSL", "amyloid nucleation score": "0.31 ± 0.47"}, {"substance": "IDYRIDCVCFLCSVREEAYR", "amyloid nucleation score": "7.278 ± 0.047"}, {"substance": "IEAYYGIPDVKHMLVYLRQD", "amyloid nucleation score": "-0.284 ± 0.7"}, {"substance": "IENRFLGVKLIAGCSHGLWS", "amyloid nucleation score": "-0.241 ± 0.57"}, {"substance": "IEQSNMVTARRLELLRSAVS", "amyloid nucleation score": "0.339 ± 0.54"}]}]}
